Results on eleven substances are retold here after US6140466.

In data set [1] the target is Zif268 displayed on phage (Mus musculus) (UniProt P08046). In words: SELEX. The following applies: phage panning, same level as BSA.
Data set [2] concerns the target MBP-Sp1C (synthetic (human Sp1 variant)) (UniProt P08047). The experiment in a line: EMSA. Particulars: 0.1 mM ZnCl2, RT.
Data set [3] concerns MBP-Sp1C-C7 (six-finger) (synthetic (Sp1C/Zif268 variant)). In words: EMSA. For orientation: A gel shift assay detects complexes by their altered migration in electrophoresis.
The test system of data set [4] is MBP-C7-C7 (six-finger) (synthetic (Zif268 variant, mouse)). The experiment in a line: EMSA.
Data set [5] concerns the target Zif268 variant A14 finger 3 helix residues changed (FIG. 9) (synthetic (Zif268 variant)) (UniProt Q6NTY6). The experiment in a line: SPR.
Data set [6] addresses Zif268 variant C9 finger 1 helix residues changed (FIG. 9) (synthetic (Zif268 variant)) (UniProt Q6NTY6). The experiment in a line: SPR. The following applies: equivalent to Zif268.
In data set [7] the test system is Zif268 variant G4 finger 2 helix residues changed (FIG. 9) (synthetic (Zif268 variant)). In words: SPR.
Data set [8] concerns Zif268 variant G6 finger 2 helix residues changed (FIG. 9) (synthetic (Zif268 variant)). The experiment in a line: SPR. Background: In SPR one partner is held on a chip, and binding of the other changes the refractive index at the surface.
The subject of data set [9] is C7-C7-VP16 (synthetic (Zif268 variant)). In words: cell_activity. The following applies: HeLa luciferase reporter.
[10] abbreviates: 9 bp half-site, 0.1 mM ZnCl2, RT.
The mark [11] stands for this setting: 0.1 mM ZnCl2, 100 mM KCl, poly(dI-dC), RT.

Some results are limits rather than exact numbers.

Zif268 variant A14 finger 3 helix residues changed (FIG. 9) (synthetic (Zif268 variant)), sequence (Q6NTY6 whole entry, change not shown): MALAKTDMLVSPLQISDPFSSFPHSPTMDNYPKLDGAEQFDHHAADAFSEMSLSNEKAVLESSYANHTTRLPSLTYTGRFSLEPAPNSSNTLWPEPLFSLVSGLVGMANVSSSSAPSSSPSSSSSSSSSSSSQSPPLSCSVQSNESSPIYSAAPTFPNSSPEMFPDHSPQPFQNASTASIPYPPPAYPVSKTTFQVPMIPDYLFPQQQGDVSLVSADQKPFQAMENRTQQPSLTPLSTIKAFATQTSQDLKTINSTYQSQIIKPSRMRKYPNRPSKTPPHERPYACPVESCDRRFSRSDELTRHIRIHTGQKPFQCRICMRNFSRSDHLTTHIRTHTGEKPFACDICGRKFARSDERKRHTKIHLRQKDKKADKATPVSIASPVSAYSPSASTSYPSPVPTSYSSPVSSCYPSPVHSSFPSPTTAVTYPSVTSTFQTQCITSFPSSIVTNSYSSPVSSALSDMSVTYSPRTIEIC
Zif268 variant C9 finger 1 helix residues changed (FIG. 9) (synthetic (Zif268 variant)), sequence (Q6NTY6 whole entry, change not shown): as above
MBP-Sp1C (synthetic (human Sp1 variant)), sequence (P08047 626-708, change not shown): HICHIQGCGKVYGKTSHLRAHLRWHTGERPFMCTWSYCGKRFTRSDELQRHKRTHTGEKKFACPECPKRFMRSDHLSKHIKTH

The substance TFIIIA fingers 1-3 site (panning) returned a binding signal (fold less than consensus) in [1] of 9.

Regarding “GATGTATGTAGGGGCGGGGTAAGTAATGC (double strand) [Sp1C site probe]”, the figures for the Kd in data set [2] and in data set [3] (setting [10]) were 40.8 nM and 27.4 nM, respectively.

Consider “GATGTATGTAGCGTGGGCGGCGTGGGCGTAAGTAATGC (double strand) [C7-C7 site probe]”, for which the dissociation constant Kd (as a rule, the constant that tells how readily two partners part at equilibrium) in data set [4] (setting [11]) was 0.46 nM; in [3] (0.1 mM ZnCl2, RT) it was 1.8 nM.

As to “CCTGCGTGGGCGCCCTTTTGGGCGCCCACGCAGG [Z268N consensus hairpin]”, in data set [5], the binding signal (fold lower affinity than Zif268) is 2. Besides, the binding signal (fold of Zif268 affinity) in data set [6] was 1. The binding signal (fold weaker than TTG site) in data set [7] and in data set [8] was 4 in each case.

Consider “GATGTATGTAGCGTGGGCGGGGGCGGGGTAAGTAATGC (double strand) [Sp1C-C7 site probe]”, for which the Kd was 2.4 nM in data set [4] (setting [11]) and 0.55 nM in data set [3] (setting [11]).

With “GATGTATGTAGCGTGGGCGTAAGTAATGC (double strand) [C7 site probe]”, the dissociation constant (Kd) is 6.1 nM in data set [4] (setting [10]) and 4.9 nM in data set [3] (setting [10]).

Take “CCTGCGTTGGCGCCCTTTTGGGCGCCAACGCAGG [TTG finger 2 hairpin (HIV-1 subsite)]”: the binding signal (fold of Zif268-consensus affinity) in data set [7] (equivalent to Zif268 on its consensus) and in [8] (specificity by on-rate) was 1 in each case.

Consider “GCGTGGGCGGGGGCGGGG (double strand) [6x Sp1C-C7 site SV40 promoter reporter]”, for which the activity (fold activation) in [9] is 3.

Consider “GATGTATGTAGCGGCGGCGGCGGCGGCGTAAGTAATGC (double strand) [(GCG)6 site probe]”, for which the Kd in data set [4] (0.1 mM ZnCl2, RT) came out at 17.3 nM.

Take “GCGTGGGCG (double strand) [6x C7 site SV40 promoter reporter]”: in data set [9], the activity (fold activation) was determined as 3.

For “GCGTGGGCGGCGTGGGCG (double strand) [6x C7-C7 site SV40 promoter reporter]”, the activity (fold activation) in data set [9] is greater than 300.
